Numbered stars: 1 amine (or outer) side, 2 acyl side, 3 side chain; on linkers, the order of the positions; unused ones are H or OH. Bridge positions count the residues as written; N and C are the ends. Square brackets hold non-standard residues; d marks the D form. Side chains are listed from the residue outwards. Ends that are not written are not given here. * marks the point of attachment. C18 diacid = O=C(O)CCCCCCCCCCCCCCCCC(=O)*; γGlu = O=C(O)[C@H](CCC(=O)[*:2])N[*:1]; Aib = CC(C)(N)C(=O)O

Assay [1] has as its target T1, human amylin receptor (calcitonin receptor co-expressed with receptor activity modifying protein, RAMP3) (human, UniProt P30988 25-474; O60896 24-148).
T1 sequence (looked up) 1: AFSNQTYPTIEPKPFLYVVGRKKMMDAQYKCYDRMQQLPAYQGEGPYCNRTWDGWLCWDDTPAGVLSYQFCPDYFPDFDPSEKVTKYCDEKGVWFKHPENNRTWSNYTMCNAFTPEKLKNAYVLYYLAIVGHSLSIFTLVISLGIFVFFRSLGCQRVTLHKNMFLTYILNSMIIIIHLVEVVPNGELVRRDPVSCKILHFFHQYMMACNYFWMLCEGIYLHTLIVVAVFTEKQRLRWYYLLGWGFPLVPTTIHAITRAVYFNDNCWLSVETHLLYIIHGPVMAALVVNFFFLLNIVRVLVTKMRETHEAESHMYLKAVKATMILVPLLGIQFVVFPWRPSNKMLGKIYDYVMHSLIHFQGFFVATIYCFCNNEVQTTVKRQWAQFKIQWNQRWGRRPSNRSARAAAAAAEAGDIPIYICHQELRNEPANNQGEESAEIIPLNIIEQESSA
T1 sequence (looked up) 2: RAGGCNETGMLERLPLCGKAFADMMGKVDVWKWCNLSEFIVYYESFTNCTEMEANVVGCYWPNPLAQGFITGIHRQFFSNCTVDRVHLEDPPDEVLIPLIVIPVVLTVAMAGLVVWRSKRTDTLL
Nature of the assay: cell-based or functional assay.

The target of assay [2] is T2, human calcitonin receptor (human, UniProt P30988 25-474).
T2 sequence (looked up): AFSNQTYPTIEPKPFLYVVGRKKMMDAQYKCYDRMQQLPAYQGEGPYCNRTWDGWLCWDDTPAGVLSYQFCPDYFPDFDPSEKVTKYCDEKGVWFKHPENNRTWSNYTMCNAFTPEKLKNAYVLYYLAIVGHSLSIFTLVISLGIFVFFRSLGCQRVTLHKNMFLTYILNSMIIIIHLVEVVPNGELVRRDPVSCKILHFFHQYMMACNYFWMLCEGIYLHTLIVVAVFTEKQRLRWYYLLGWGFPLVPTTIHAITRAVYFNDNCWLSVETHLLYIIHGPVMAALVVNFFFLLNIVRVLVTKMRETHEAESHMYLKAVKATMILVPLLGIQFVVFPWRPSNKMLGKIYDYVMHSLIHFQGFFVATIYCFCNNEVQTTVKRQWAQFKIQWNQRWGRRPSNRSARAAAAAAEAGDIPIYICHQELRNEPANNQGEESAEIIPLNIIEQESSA
The assay can be described thus: cell-based or functional assay.

B1: Peptide 130 (SEQ ID NO: 130) (peptide)
peptide: K([γGlu-C18 diacid])KCNTATCATQRLAEFL[Aib]HSSHNFGPILPPTNVGSNTY-NH2
modifications: disulfide 3-8; N-terminus assumed
SMILES: CC[C@H](C)[C@H](NC(=O)[C@@H]1CCCN1C(=O)CNC(=O)[C@H](Cc1ccccc1)NC(=O)[C@H](CC(N)=O)NC(=O)[C@H](Cc1c[nH]cn1)NC(=O)[C@H](CO)NC(=O)[C@H](CO)NC(=O)[C@H](Cc1c[nH]cn1)NC(=O)C(C)(C)NC(=O)[C@H](CC(C)C)NC(=O)[C@H](Cc1ccccc1)NC(=O)[C@H](CCC(=O)O)NC(=O)[C@H](C)NC(=O)[C@H](CC(C)C)NC(=O)[C@H](CCCNC(=N)N)NC(=O)[C@H](CCC(N)=O)NC(=O)[C@@H](NC(=O)[C@H](C)NC(=O)[C@@H]1CSSC[C@H](NC(=O)[C@H](CCCCN)NC(=O)[C@@H](N)CCCCNC(=O)CC[C@H](NC(=O)CCCCCCCCCCCCCCCCC(=O)O)C(=O)O)C(=O)N[C@@H](CC(N)=O)C(=O)N[C@@H]([C@@H](C)O)C(=O)N[C@@H](C)C(=O)N[C@@H]([C@@H](C)O)C(=O)N1)[C@@H](C)O)C(=O)N[C@@H](CC(C)C)C(=O)N1CCC[C@H]1C(=O)N1CCC[C@H]1C(=O)N[C@H](C(=O)N[C@@H](CC(N)=O)C(=O)N[C@H](C(=O)NCC(=O)N[C@@H](CO)C(=O)N[C@@H](CC(N)=O)C(=O)N[C@H](C(=O)N[C@@H](Cc1ccc(O)cc1)C(N)=O)[C@@H](C)O)C(C)C)[C@@H](C)O
Consider B1, for which, in assay [1], the “EC50 (cAMP production)” value amounted to 446 pM and the “Ratio (EC50 hCTR / EC50 hAMYR3)” value was found to be 15. Moreover, the “EC50 (cAMP production)” value in assay [2] was found to be 6.69 nM.

B2: Peptide 132 (SEQ ID NO: 132) (peptide)
peptide: K([γGlu-C18 diacid])KCNTATCATQRLANFL[Aib]HSSPNFGPILPPTNVGSNTY-NH2
modifications: disulfide 3-8; N-terminus assumed
SMILES: CC[C@H](C)[C@H](NC(=O)[C@@H]1CCCN1C(=O)CNC(=O)[C@H](Cc1ccccc1)NC(=O)[C@H](CC(N)=O)NC(=O)[C@@H]1CCCN1C(=O)[C@H](CO)NC(=O)[C@H](CO)NC(=O)[C@H](Cc1c[nH]cn1)NC(=O)C(C)(C)NC(=O)[C@H](CC(C)C)NC(=O)[C@H](Cc1ccccc1)NC(=O)[C@H](CC(N)=O)NC(=O)[C@H](C)NC(=O)[C@H](CC(C)C)NC(=O)[C@H](CCCNC(=N)N)NC(=O)[C@H](CCC(N)=O)NC(=O)[C@@H](NC(=O)[C@H](C)NC(=O)[C@@H]1CSSC[C@H](NC(=O)[C@H](CCCCN)NC(=O)[C@@H](N)CCCCNC(=O)CC[C@H](NC(=O)CCCCCCCCCCCCCCCCC(=O)O)C(=O)O)C(=O)N[C@@H](CC(N)=O)C(=O)N[C@@H]([C@@H](C)O)C(=O)N[C@@H](C)C(=O)N[C@@H]([C@@H](C)O)C(=O)N1)[C@@H](C)O)C(=O)N[C@@H](CC(C)C)C(=O)N1CCC[C@H]1C(=O)N1CCC[C@H]1C(=O)N[C@H](C(=O)N[C@@H](CC(N)=O)C(=O)N[C@H](C(=O)NCC(=O)N[C@@H](CO)C(=O)N[C@@H](CC(N)=O)C(=O)N[C@H](C(=O)N[C@@H](Cc1ccc(O)cc1)C(N)=O)[C@@H](C)O)C(C)C)[C@@H](C)O
Turning to B2, in assay [1], the “EC50 (cAMP production)” value is 416 pM and the “Ratio (EC50 hCTR / EC50 hAMYR3)” value came out at 9.3. Moreover, in assay [2], the “EC50 (cAMP production)” value was 3.85 nM.

B3: Peptide 131 (SEQ ID NO: 131) (peptide)
peptide: K([γGlu-C18 diacid])KCNTATCATQRLANFL[Aib]HSSHNFGPILPPTNVGSNTY-NH2
modifications: disulfide 3-8; N-terminus assumed
SMILES: CC[C@H](C)[C@H](NC(=O)[C@@H]1CCCN1C(=O)CNC(=O)[C@H](Cc1ccccc1)NC(=O)[C@H](CC(N)=O)NC(=O)[C@H](Cc1c[nH]cn1)NC(=O)[C@H](CO)NC(=O)[C@H](CO)NC(=O)[C@H](Cc1c[nH]cn1)NC(=O)C(C)(C)NC(=O)[C@H](CC(C)C)NC(=O)[C@H](Cc1ccccc1)NC(=O)[C@H](CC(N)=O)NC(=O)[C@H](C)NC(=O)[C@H](CC(C)C)NC(=O)[C@H](CCCNC(=N)N)NC(=O)[C@H](CCC(N)=O)NC(=O)[C@@H](NC(=O)[C@H](C)NC(=O)[C@@H]1CSSC[C@H](NC(=O)[C@H](CCCCN)NC(=O)[C@@H](N)CCCCNC(=O)CC[C@H](NC(=O)CCCCCCCCCCCCCCCCC(=O)O)C(=O)O)C(=O)N[C@@H](CC(N)=O)C(=O)N[C@@H]([C@@H](C)O)C(=O)N[C@@H](C)C(=O)N[C@@H]([C@@H](C)O)C(=O)N1)[C@@H](C)O)C(=O)N[C@@H](CC(C)C)C(=O)N1CCC[C@H]1C(=O)N1CCC[C@H]1C(=O)N[C@H](C(=O)N[C@@H](CC(N)=O)C(=O)N[C@H](C(=O)NCC(=O)N[C@@H](CO)C(=O)N[C@@H](CC(N)=O)C(=O)N[C@H](C(=O)N[C@@H](Cc1ccc(O)cc1)C(N)=O)[C@@H](C)O)C(C)C)[C@@H](C)O
Regarding B3, the results for the “EC50 (cAMP production)” value in assay [1] and in assay [2] were 737 pM and 15.1 nM, respectively. Moreover, in assay [1], the “Ratio (EC50 hCTR / EC50 hAMYR3)” value worked out at 20.5.

B4: Peptide 128 (SEQ ID NO: 128) (peptide)
peptide: K([γGlu-C18 diacid])KCNTATCATQRLAEFL[Aib]HSSNNFGPILPPTNVGSNTY-NH2
modifications: disulfide 3-8; N-terminus assumed
SMILES: CC[C@H](C)[C@H](NC(=O)[C@@H]1CCCN1C(=O)CNC(=O)[C@H](Cc1ccccc1)NC(=O)[C@H](CC(N)=O)NC(=O)[C@H](CC(N)=O)NC(=O)[C@H](CO)NC(=O)[C@H](CO)NC(=O)[C@H](Cc1c[nH]cn1)NC(=O)C(C)(C)NC(=O)[C@H](CC(C)C)NC(=O)[C@H](Cc1ccccc1)NC(=O)[C@H](CCC(=O)O)NC(=O)[C@H](C)NC(=O)[C@H](CC(C)C)NC(=O)[C@H](CCCNC(=N)N)NC(=O)[C@H](CCC(N)=O)NC(=O)[C@@H](NC(=O)[C@H](C)NC(=O)[C@@H]1CSSC[C@H](NC(=O)[C@H](CCCCN)NC(=O)[C@@H](N)CCCCNC(=O)CC[C@H](NC(=O)CCCCCCCCCCCCCCCCC(=O)O)C(=O)O)C(=O)N[C@@H](CC(N)=O)C(=O)N[C@@H]([C@@H](C)O)C(=O)N[C@@H](C)C(=O)N[C@@H]([C@@H](C)O)C(=O)N1)[C@@H](C)O)C(=O)N[C@@H](CC(C)C)C(=O)N1CCC[C@H]1C(=O)N1CCC[C@H]1C(=O)N[C@H](C(=O)N[C@@H](CC(N)=O)C(=O)N[C@H](C(=O)NCC(=O)N[C@@H](CO)C(=O)N[C@@H](CC(N)=O)C(=O)N[C@H](C(=O)N[C@@H](Cc1ccc(O)cc1)C(N)=O)[C@@H](C)O)C(C)C)[C@@H](C)O
Regarding B4, in assay [1], the “EC50 (cAMP production)” value came out at 118 pM and the “Ratio (EC50 hCTR / EC50 hAMYR3)” value is 4.8. For the same molecule, the “EC50 (cAMP production)” value in assay [2] came to 0.568 nM.

These data come from patent US20220204580A1 (AstraZeneca / MedImmune, published 2022).
